Test results as given in the supplement of paper PMC11246515.
± gives the standard deviation of the averaged measurements.

Assay: total protein half-life in vivo (active degradation + dilution); higher = more stable protein
[1] = E. coli NCM3722 delta-clpP delta-lon delta-hslV, growth: N-lim chemostat, doubling time 6 h
[2] = E. coli NCM3722 delta-hslV, growth: N-lim chemostat, doubling time 6 h
[3] = E. coli NCM3722 delta-lon, growth: N-lim chemostat, doubling time 6 h
[4] = E. coli NCM3722 delta-smpB, growth: N-lim chemostat, doubling time 6 h
[5] = wild type E. coli NCM3722, growth: C-lim chemostat, doubling time 12 h
[6] = wild type E. coli NCM3722, growth: N-lim chemostat, doubling time 6 h
[7] = wild type E. coli NCM3722, growth: N-lim chemostat, doubling time 12 h
[8] = wild type E. coli NCM3722, growth: P-lim chemostat, doubling time 6 h
[9] = wild type E. coli NCM3722, growth: P-lim chemostat, doubling time 12 h
[10] = wild type E. coli NCM3722, growth: C-lim chemostat, doubling time 6 h
[11] = E. coli NCM3722 delta-clpP, growth: N-lim chemostat, doubling time 6 h
[12] = wild type E. coli NCM3722, growth: C-lim chemostat, doubling time 3 h

Sequence | total protein half-life in vivo [1] [h] | total protein half-life in vivo [2] [h] | total protein half-life in vivo [3] [h] | total protein half-life in vivo [4] [h] | total protein half-life in vivo [5] [h] | total protein half-life in vivo [6] [h] | total protein half-life in vivo [7] [h] | total protein half-life in vivo [8] [h] | total protein half-life in vivo [9] [h] | total protein half-life in vivo [10] [h] | total protein half-life in vivo [11] [h] | total protein half-life in vivo [12] [h]
MIVLVTGATAGFGECITRRFIQQGHKVIATGRRQERLQELKDELGDNLYIAQLDVRNRAAIEEMLASLPAEWCNIDILVNNAGLALGMEPAHKASVEDWETMIDTNNKGLVYMTRAVLPGMVERNHGHIINIGSTAGSWPYAGGNVYGATKAFVRQFSLNLRTDLHGTAVRVTDIEPGLVGGTEFSNVRFKGDDGKAEKTYQNTVALTPEDVSEAVWWVSTLPAHVNINTLEMMPVTQSYAGLNVHRQ | 5.86 ± 0.16 | 6.26 ± 1.3 | 6.57 ± 1.4 | 4.72 ± 0.53 | 10.8 ± 0.87 | 4.82 ± 0.56 | 8.94 ± 0.42 | 6.44 ± 0.14 | 11.6 ± 1.9 |  |  | 
MIVTIVGWLVLFVFLPNLMIIGTSFLTRDDASFVKMVFTLDNYTRLLDPLYFEVLLHSLNMALIATLACLVLGYPFAWFLAKLPHKVRPLLLFLLIVPFWTNSLIRIYGLKIFLSTKGYLNEFLLWLGVIDTPIRIMFTPSAVIIGLVYILLPFMVMPLYSSIEKLDKPLLEAARDLGASKLQTFIRIIIPLTMPGIIAGCLLVMLPAMGLFYVSDLMGGAKNLLIGNVIKVQFLNIRDWPFGAATSITLTIVMGLMLLVYWRASRLLNKKVELE [P0AFK4] | 4.04 ± 3 |  |  | 5.57 ± 0.42 | 9.29 ± 5.5 | 5.03 |  | 2.09 | 6.6 | 5.93 |  | 
MIYIGLPQWSHPKWVRLGITSLEEYARHFNCVEGNTTLYALPKPEVVLRWREQTTDDFRFCFKFPATISHQAALRHCDDLVTEFLTRMSPLAPRIGQYWLQLPATFGPRELPALWHFLDSLPGEFNYGVEVRHPQFFAKGEEEQTLNRGLHQRGVNRVILDSRPVHAARPHSEAIRDAQRKKPKVPVHAVLTATNPLIRFIGSDDMTQNRELFQVWLQKLAQWHQTTTPYLFLHTPDIAQAPELVHTLWEDLRKTLPEIGAVPAIPQQSSLF | 4.97 ± 2.1 | 2.76 ± 0.11 | 3.25 ± 0.55 | 2.97 ± 0.13 | 8.14 ± 0.79 | 3.16 ± 0.033 | 5.52 | 5.33 ± 0.11 | 11.5 ± 0.46 | 4.28 | 3.55 ± 0.26 | 
MIYPDEAMLYAPVEWHDCSEGFEDIRYEKSTDGIAKITINRPQVRNAFRPLTVKEMIQALADARYDDNIGVIILTGAGDKAFCSGGDQKVRGDYGGYKDDSGVHHLNVLDFQRQIRTCPKPVVAMVAGYSIGGGHVLHMMCDLTIAADNAIFGQTGPKVGSFDGGWGASYMARIVGQKKAREIWFLCRQYDAKQALDMGLVNTVVPLADLEKETVRWCREMLQNSPMALRCLKAALNADCDGQAGLQELAGNATMLFYMTEEGQEGRNAFNQKRQPDFSKFKRNP [P0ABU0] | 4.73 ± 0.74 | 4.15 ± 0.17 | 4.48 ± 0.44 | 3.8 ± 0.061 | 9.64 ± 0.8 | 3.88 ± 0.12 | 6.07 ± 0.33 | 5.58 ± 0.069 | 10.85 ± 0.06 | 5.55 ± 0.53 | 4.048 ± 0.036 | 2.9 ± 0.51
MKAARQQAIVDLLLNHTSLTTEALSEQLKVSKETIRRDLNELQTQGKILRNHGRAKYIHRQNQDSGDPFHIRLKSHYAHKADIAREALAWIEEGMVIALDASSTCWYLARQLPDINIQVFTNSHPICHELGKRERIQLISSGGTLERKYGCYVNPSLISQLKSLEIDLFIFSCEGIDSSGALWDSNAINADYKSMLLKRAAQSLLLIDKSKFNRSGEARIGHLDEVTHIISDERQVATSLVTA [P0ACK8] | 4.82 ± 0.058 |  |  | 0.618 | 1.36 ± 0.31 | 1.3 | 0.218 |  |  | 1.09 | 2.74 ± 0.14 | 0.695 ± 0.079
MKAFDLHRMAFDKVPFDFLGEVALRSLYTFVLVFLFLKMTGRRGVRQMSLFEVLIILTLGSAAGDVAFYDDVPMVPVLIVFITLALLYRLVMWLMAHSEKLEDLLEGKPVVIIEDGELAWSKLNNSNMTEFEFFMELRLRGVEQLGQVRLAILETNGQISVYFFEDDKVKPGLLILPSDCTQRYKVVPESADYACIRCSEIIHMKAGEKQLCPRCANPEWTKASRAKRVT | 6.22 ± 1.1 | 5.53 | 5.11 ± 0.43 | 5.8 ± 0.11 | 11.8 |  | > 16 |  | 12.1 ± 0.66 | > 8 | 6.17 | 
MKAILIPFLSLLIPLTPQSAFAQSEPELKLESVVIVSRHGVRAPTKATQLMQDVTPDAWPTWPVKLGWLTPRGGELIAYLGHYQRQRLVADGLLAKKGCPQSGQVAIIADVDERTRKTGEAFAAGLAPDCAITVHTQADTSSPDPLFNPLKTGVCQLDNANVTDAILSRAGGSIADFTGHRQTAFRELERVLNFPQSNLCLKREKQDESCSLTQALPSELKVSADNVSLTGAVSLASMLTEIFLLQQAQGMPEPGWGRITDSHQWNTLLSLHNAQFYLLQRTPEVARSRATPLLDLIKTALTPHPPQKQAYGVTLPTSVLFIAGHDTNLANLGGALELNWTLPGQPDNTPPGGELVFERWRRLSDNSQWIQVSLVFQTLQQMRDKTPLSLNTPPGEVKLTLAGCEERNAQGMCSLAGFTQIVNEARIPACSL | 5.24 ± 0.47 | 6.56 ± 0.62 | 6.26 ± 0.8 | 5.84 ± 0.11 | 11.6 ± 0.68 | 5.94 ± 0.28 | 12.6 ± 0.49 | 5.7 ± 0.15 | 11.9 ± 0.49 |  | 5.26 ± 0.056 | 3.02 ± 0.21
MKALARFGKAFGGYKMIDVPQPMCGPEDVVIEIKAAAICGADMKHYNVDSGSDEFNSIRGHEFAGCIAQVGEKVKDWKVGQRVVSDNSGHVCGVCPACEQGDFLCCTEKVNLGLDNNTWGGGFSKYCLVPGEILKIHRHALWEIPDGVDYEDAAVLDPICNAYKSIAQQSKFLPGQDVVVIGTGPLGLFSVQMARIMGAVNIVVVGLQEDVAVRFPVAKELGATAVVNGSTEDVVARCQQICGKDNLGLVIECSGANIALKQAIEMLRPNGEVVRVGMGFKPLDFSINDITAWNKSIIGHMAYDSTSWRNAIRLLASGAIKVKPMITHRIGLSQWREGFDAMVDKTAIKVIMTYDFDE |  |  | 4.04 |  | 3.7 ± 0.86 |  |  |  | 5.73 | 2.23 |  | 1.33
MKALSKLKAEEGIWMTDVPVPELGHNDLLIKIRKTAICGTDVHIYNWDEWSQKTIPVPMVVGHEYVGEVVGIGQEVKGFKIGDRVSGEGHITCGHCRNCRGGRTHLCRNTIGVGVNRPGCFAEYLVIPAFNAFKIPDNISDDLAAIFDPFGNAVHTALSFDLVGEDVLVSGAGPIGIMAAAVAKHVGARNVVITDVNEYRLELARKMGITRAVNVAKENLNDVMAELGMTEGFDVGLEMSGAPPAFRTMLDTMNHGGRIAMLGIPPSDMSIDWTKVIFKGLFIKGIYGREMFETWYKMAALIQSGLDLSPIITHRFSIDDFQKGFDAMRSGQSGKVILSWD | 4.87 ± 0.096 | 5.96 ± 1.6 | 5.24 ± 0.061 | 4.44 ± 0.18 | 9.68 ± 1.8 | 4.85 ± 0.16 | 8.68 ± 0.96 | 6.2 ± 0.19 | 12.6 ± 0.36 | 4.37 ± 0.59 | 5 ± 0.21 | 2.439 ± 0.022
MKALSPIAVLISALLLQGCVAAAVVGTAAVGTKAATDPRSVGTQVDDGTLEVRVNSALSKDEQIKKEARINVTAYQGKVLLVGQSPNAELSARAKQIAMGVDGANEVYNEIRQGQPIGLGEASNDTWITTKVRSQLLTSDLVKSSNVKVTTENGEVFLMGLVTEREAKAAADIASRVSGVKRVTTAFTFIK | 5.42 ± 0.59 | 6.43 ± 0.3 | 6.34 ± 0.34 | 5.71 ± 0.1 | 10.5 ± 1.7 | 5.86 ± 0.3 | 11.9 ± 0.14 | 5.78 ± 0.22 | 12.3 ± 0.21 | 5.72 ± 0.47 |  | 3.05 ± 0.21
MKATSEELAIFVSVVESGSFSRAAEQLGQANSAVSRAVKKLEMKLGVSLLNRTTRQLSLTEEGERYFRRVQSILQEMAAAESEIMETRNTPRGLLRIDAATPVVLHFLMPLIKPFRERYPEVTLSLVSSETIINLIERKVDVAIRAGTLTDSSLRARPLFNSYRKIIASPDYISRYGKPETIDDLKQHICLGFTEPASLNTWPIARSDGQLHEVKYGLSSNSGETLKQLCLSGNGIACLSDYMIDKEIARGELVELMADKVLPVEMPFSAVYYSDRAVSTRIRAFIDFLSEHVKTAPGGAVREA | 6.4 ± 0.2 | 5.5 ± 1.2 | 5.97 ± 0.94 | 5.67 ± 0.07 | 12.7 ± 0.46 | 6.02 ± 0.12 | 11.3 ± 0.32 | 5.75 ± 0.71 | 12 ± 1.9 | 5.1 ± 0.3 |  | 3.33 ± 0.26
MKCKRLNEVIELLQPAWQKEPDLNLLQFLQKLAKESGFDGELADLTDDILIYHLKMRDSAKDAVIPGLQKDYEEDFKTALLRARGVIKE [P0ADP9] | 6.97 ± 1.2 | 3.81 ± 0.33 | 3.98 ± 0.12 | 3.12 ± 0.3 | 7.3 ± 1.9 | 2.74 ± 0.051 | 8.19 ± 5.8 | 5.01 ± 1.1 | 11.2 ± 0.38 | 4.76 ± 0.47 | 4.97 ± 0.93 | 
MKDVVDKCSTKGCAIDIGTVIDNDNCTSKFSRFFATREEAESFMTKLKELAAATSSADEGASVAYKIKDLEGQVELDAAFTFSCQAEMIIFELSLRSLA | 5.09 ± 0.21 | 2.6 ± 0.38 | 2.85 ± 0.098 | 2.09 ± 0.23 | 5.78 ± 0.33 | 2.26 ± 0.19 | 3.38 ± 0.55 | 4 ± 0.22 | 7.6436 ± 0.0046 | 4.95 ± 1.9 | 4.2 | 2.11 ± 0.4
MKEKPAVEVRLDKWLWAARFYKTRALAREMIEGGKVHYNGQRSKPSKIVELNATLTLRQGNDERTVIVKAITEQRRPASEAALLYEETAESVEKREKMALARKLNALTMPHPDRRPDKKERRDLLRFKHGDSE [P0ACG8] | 6.23 ± 0.21 |  | 5.39 | 3.67 | 6.7 | 4.16 | 6.59 |  | 7.24 | 5.7 ± 1.5 |  | 2.91
MKESNSRREFLSQSGKMVTAAALFGTSVPLAHAAVAGTLNCEANNTMKITDPHYYLDNVLLETGFDYENGVAVQTRTARQTVEIQDGKIVALRENKLHPDATLPHYDAGGKLMLPTTRDMHIHLDKTFYGGPWRSLNRPAGTTIQDMIKLEQKMLPELQPYTQERAEKLIDLLQSKGTTIARSHCNIEPVSGLKNLQNLQAVLARRQAGFECEIVAFPQHGLLLSKSEPLMREAMQAGAHYVGGLDPTSVDGAMEKSLDTMFQIALDYDKGVDIHLHETTPAGVAAINYMVETVEKTPQLKGKLTISHAFALATLNEQQVDELANRMVVQQISIASTVPIGTLHMPLKQLHDKGVKVMTGTDSVIDHWSPYGLGDMLEKANLYAQLYIRPNEQNLSRSLFLATGDVLPLNEKGERVWPKAQDDASFVLVDASCSAEAVARISPRTATFHKGQLVWGSVAG | 4.64 ± 0.15 | 4.51 ± 0.31 | 4.82 ± 0.11 | 3.937 ± 0.008 | 9.95 ± 0.62 | 4.32 ± 0.17 | 6.843 ± 0.056 | 5.67 ± 0.43 | 11.53 ± 0.036 |  | 4.34 ± 0.53 | 3.21 ± 0.41
MKFELDTTDGRARRGRLVFDRGVVETPCFMPVGTYGTVKGMTPEEVEATGAQIILGNTFHLWLRPGQEIMKLHGDLHDFMQWKGPILTDSGGFQVFSLGDIRKITEQGVHFRNPINGDPIFLDPEKSMEIQYDLGSDIVMIFDECTPYPADWDYAKRSMEMSLRWAKRSRERFDSLGNKNALFGIIQGSVYEDLRDISVKGLVDIGFDGYAVGGLAVGEPKADMHRILEHVCPQIPADKPRYLMGVGKPEDLVEGVRRGIDMFDCVMPTRNARNGHLFVTDGVVKIRNAKYKSDTGPLDPECDCYTCRNYSRAYLHHLDRCNEILGARLNTIHNLRYYQRLMAGLRKAIEEGKLESFVTDFYQRQGREVPPLNVD [P0A847] | 5.511 ± 0.011 | 4.74 ± 0.42 |  | 4.12 ± 0.42 | 10.9 ± 0.33 | 5.08 ± 0.26 | 9.05 ± 0.3 | 6.03 ± 0.7 | 13.7 ± 1.2 | 6.4 ± 0.068 | 5.15 ± 0.27 | 3.176 ± 0.02
